Measurements published in patent US20070207498A1, “Design and construction of dimeric concanavalin a mutants” (LifeScan, Inc., priority 2005, published 2007).

How the values were obtained:
[1] = target: T1, Concanavalin A (ConA) dimer mutant pET32 (D58N, N118C, H121C, E192Q), SEQ ID NOS: 12 and 24 (Canavalia ensiformis, UniProt P02866, D221N/E103Q/H32C/N281C); assay: FRET response of sensors, Cy3.5-labeled pET32 dimer mutant ConA (donor) with Alexa647-labeled superoxide dismutase (acceptor); assay type: binding; conditions: 500 mg/dL glucose; 6 μM to 24 μM ratio, Alexa647-SOD, FIG. 13
T1 construct: made in house
From the text: (§1) Functional properties of recombinant ConA have been characterized by Fluorescence Resonance Energy Transfer (FRET) using a PTI QuantaMaster fluorimeter.

[2] = target: T1, Concanavalin A (ConA) dimer mutant pET32 (D58N, N118C, H121C, E192Q), SEQ ID NOS: 12 and 24; assay: FRET response of sensors, Cy3.5-labeled pET32 dimer mutant ConA (donor) with Cy5.5-labeled superoxide dismutase (acceptor); assay type: binding; conditions: 500 mg/dL glucose; Cy5.5-SOD, FIG. 14
From the text: as §1
Sensors made with Cy3.5-labeled pET32 dimer mutant ConA and Cy5.5-labeled superoxide dismutase (SOD).

[3] = target: dye and sugar-labeled therapeutic human serum albumin (tHSA) (human) (UniProt P02768); assay: FRET competition assay (FIG. 12), 4-parameter logistic fit; unlabeled tetramer against labeled tetrameric ConA on HSA
[4] = target: dye and sugar-labeled therapeutic human serum albumin (tHSA) (human) (UniProt P02768); assay: FRET competition assay, 384-well plate: unlabeled tetramer displaces labeled tetrameric ConA from HSA; Ki estimated from EC50 and the concentration of labeled tetramer
[5] = target: T2, dye and sugar-labeled therapeutic human serum albumin (tHSA) (human, UniProt P02768 25-609, sugar-labeled (glycoconjugate); labeled with the acceptor Alexa 647; modified residues not stated); assay: FRET competition assay, 384-well plate: unlabeled competitor displaces labeled tetrameric ConA from HSA; Ki estimated from EC50 and the concentration of labeled tetramer
T2 construct: also called Alexa-HSA; Alexa-labeled Human Serum Albumin
Protocol: Mutant ConA was characterized by FRET. […] The EC₅₀ was calculated using a 4-parameter logistic equation.

OC[C@H]1OC(O)[C@H](O)[C@@H](O)[C@@H]1O (some centres unmarked) [glucose]
FRET response to the addition of glucose [1]: approximately 262% | FRET response to the addition of glucose [2]: ~266%

ConA tetramer (tetrameric ConA used as labeled partner and as unlabeled competitor in the competition binding assay) (from UniProt P02866 30-281)
EC50 [3]: 110 nM | Ki [4]: 9.1 nM

B1: pET32 quad mutant ConA (D58N, N118C, H121C, E192Q), stable dimer (other)
chain: ADTIVAVELDTYPNTDIGDPSYPHIGIDIKSVRSKKTAKWNMQNGKVGTAHIIYNSVNKRLSAVVSYPNADSATVSYDVDLDNVLPEWVRVGLSASTGLYKETNTILSWSFTSKLKSCSTCETNALHFMFNQFSKDQKDLILQGDATTGTDGNLELTRVSSNGSPQGSSVGRALFYAPVHIWESSAVVASFQATFTFLIKSPDSHPADGIAFFISNIDSSIPSGSTGRLLGLFPDAN
modifications: unlabeled as competitor in the FIG. 12 assay; labeled with Cy3.5b / Cy3.5 (donor dye) in the FRET and sensor experiments, labeled residues not stated
notes: also called dimer mutant ConA; pET32 dimer ConA mutant
Ki [5]: ~21 nM
